From doi:10.1101/2021.03.17.435802 (bioRxiv, 2021) come the findings set out here.

For this test, the target named is SARS-CoV-2 S1 WT (in-house) (SARS-CoV-2, UniProt P0DTC2). As to the kind of experiment: SPR.

B1: LY-CoV555 (antibody, V domains shown)
VH: QVQLVQSGAEVKKPGSSVKVSCKASGGTFSNYAISWVRQAPGQGLEWMGRIIPILGIANYAQKFQGRVTITADKSTSTAYMELSSLRSEDTAVYYCARGYYEARHYYYYYAMDVWGQGTAVTVSS
VL: not shown
On to B1, for which the binding result is recorded as “binds”.

B2: REGN10933 (antibody, V domains shown)
VH: QVQLVESGGGLVKPGGSLRLSCAASGFTFSDYYMSWIRQAPGKGLEWVSYITYSGSTIYYADSVKGRFTISRDNAKSSLYLQMNSLRAEDTAVYYCARDRGTTMVPFDYWGQGTLVTVSS
VL: DIQMTQSPSSLSASVGDRVTITCQASQDITNYLNWYQQKPGKAPKLLIYAASNLETGVPSRFSGSGSGTDFTFTISGLQPEDIATYYCQQYDNLPLTFGGGTKVEIK
As to B2, the binding result is “binds”.
